Target: Recombinant Human TNF-α/TNFSF1A (human, UniProt P01375 77-233)
Assay: cell-based or functional assay

Recombinant Human TNF-α/TNFSF1A, sequence (P01375 77-233 limits assumed): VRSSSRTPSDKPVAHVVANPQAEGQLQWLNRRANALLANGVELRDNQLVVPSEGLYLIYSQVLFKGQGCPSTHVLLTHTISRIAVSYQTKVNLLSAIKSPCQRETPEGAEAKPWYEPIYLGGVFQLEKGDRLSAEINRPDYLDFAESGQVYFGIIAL

C-Terminal VD huTNFα Neutralization Assay IC50 [nM]	N-Terminal VD huTNFα Neutralization Assay IC50 [nM]	Binder
1.62		DVD3239 (bispecific antibody, IgG1) VH: EVQLVESGGGLVQPGGSLRLSCAASGFSFSKYWLGWVRQAPGKGLEWVSDIYPGYDYTHYNEKFKDRFTISADTSKNTAYLQMNSLRAEDTAVYYCARSDGSSTYWGQGTLVTVSSASTKGPEVQLVQSGAEVKKPGASVKVSCKASGYTFNNYGIIWVRQAPGQGLEWMGWINTYTGKPTYAQKFQGRVTMTTDTSTSTAYMELSSLRSEDTAVYYCARKLFNTVAVTDNAMDYWGQGTTVTVSS VL: DIQMTQSPSSLSASVGDRVTITCTSSQNIVHSNGNTYLEWYQQKPGKAPKLLIYKVSNRFSGVPSRFSGSGSGTDFTLTISSLQPEDFATYYCFQVSHVPYTFGQGTKVEIKRTVAAPDIQMTQSPSSLSASVGDRVTITCRASQDIENYLNWYQQKPGKAPKLLIYYTSRLQSGVPSRFSGSGSGTDFTLTISSLQPEDFATYFCQQGNTQPPTFGQGTKLEIKR
0.168		DVD3238 (bispecific antibody, IgG1) VH: EVQLVESGGGLVQPGGSLRLSCAASGFSFSKYWLGWVRQAPGKGLEWVSDIYPGYDYTHYNEKFKDRFTISADTSKNTAYLQMNSLRAEDTAVYYCARSDGSSTYWGQGTLVTVSSGGGGSGGGGSEVQLVQSGAEVKKPGASVKVSCKASGYTFNNYGIIWVRQAPGQGLEWMGWINTYTGKPTYAQKFQGRVTMTTDTSTSTAYMELSSLRSEDTAVYYCARKLFNTVAVTDNAMDYWGQGTTVTVSS VL: DIQMTQSPSSLSASVGDRVTITCTSSQNIVHSNGNTYLEWYQQKPGKAPKLLIYKVSNRFSGVPSRFSGSGSGTDFTLTISSLQPEDFATYYCFQVSHVPYTFGQGTKVEIKRGGSGGGGSGDIQMTQSPSSLSASVGDRVTITCRASQDIENYLNWYQQKPGKAPKLLIYYTSRLQSGVPSRFSGSGSGTDFTLTISSLQPEDFATYFCQQGNTQPPTFGQGTKLEIKR

Further lines, the binder ahead of its results:

Binder	C-Terminal VD huTNFα Neutralization Assay IC50 [nM]	N-Terminal VD huTNFα Neutralization Assay IC50 [nM]
DVD3241 (bispecific antibody, IgG1) VH: EVQLVESGGGLVQPGGSLRLSCAASGFSFSKYWLGWVRQAPGKGLEWVSDIYPGYDYTHYNEKFKDRFTISADTSKNTAYLQMNSLRAEDTAVYYCARSDGSSTYWGQGTLVTVSSASTKGPEVQLVQSGAEVKKPGASVKVSCKASGYTFNNYGIIWVRQAPGQGLEWMGWINTYTGKPTYAQKFQGRVTMTTDTSTSTAYMELSSLRSEDTAVYYCARKLFNTVAVTDNAMDYWGQGTTVTVSS VL: DIQMTQSPSSLSASVGDRVTITCTSSQNIVHSNGNTYLEWYQQKPGKAPKLLIYKVSNRFSGVPSRFSGSGSGTDFTLTISSLQPEDFATYYCFQVSHVPYTFGQGTKVEIKRTVAAPSVFIFPPDIQMTQSPSSLSASVGDRVTITCRASQDIENYLNWYQQKPGKAPKLLIYYTSRLQSGVPSRFSGSGSGTDFTLTISSLQPEDFATYFCQQGNTQPPTFGQGTKLEIKR	0.112	
DVD3237 (bispecific antibody, IgG1) VH: EVQLVQSGAEVKKPGASVKVSCKASGYTFNNYGIIWVRQAPGQGLEWMGWINTYTGKPTYAQKFQGRVTMTTDTSTSTAYMELSSLRSEDTAVYYCARKLFNTVAVTDNAMDYWGQGTTVTVSSASTKGPSVFPLAPEVQLVESGGGLVQPGGSLRLSCAASGFSFSKYWLGWVRQAPGKGLEWVSDIYPGYDYTHYNEKFKDRFTISADTSKNTAYLQMNSLRAEDTAVYYCARSDGSSTYWGQGTLVTVSS VL: DIQMTQSPSSLSASVGDRVTITCRASQDIENYLNWYQQKPGKAPKLLIYYTSRLQSGVPSRFSGSGSGTDFTLTISSLQPEDFATYFCQQGNTQPPTFGQGTKLEIKRTVAAPDIQMTQSPSSLSASVGDRVTITCTSSQNIVHSNGNTYLEWYQQKPGKAPKLLIYKVSNRFSGVPSRFSGSGSGTDFTLTISSLQPEDFATYYCFQVSHVPYTFGQGTKVEIKR		0.01

— patent publication US20140271457A1 (AbbVie / Abbott, published 2014)
